The text below walks through data of the supplement of paper PMC7877785.

This data set in a line: self-splicing fitness, log relative to wild type (ln ratio); higher = more splicing; Tetrahymena group I intron in knt gene, E. coli kanamycin selection, DiMSum; sequences stand for … in CUCUCU…GGAGGGAAAAGUUAUCAGGCAUGCACCUGGUAGCUAGUCUUUAAACCAAUAGAUUGCAUCGGUUUAAAAGGCAAGACCGUCAAAUUGCGGGAAAGGGGUCAACAGCCGUUCAGUACCAAGUCUCAGGGGAAACUUUGAGAUGGCCUUGCAAAGGGUAUGGUAAUAAGCUGACGGACAUGGUCCUAACCACGCAGCCAAGUCCUAAGUCAACAGAUCUUCUGUUGAUAUGGAUGCAGUUCACAGACUAAAUGUCGGUCGGGGAAGAUGUAUUCUUCUCAUAAGAUAUAGUCGGACCUCUCCUUAAUGGGAGCUAGCGGAUGAAGUGAUGCAACACUGGAGCCGCUGGGAACUAAUUUGUAUGCGAAAGUAUAUUGAUUAGUUUUGGAGUACUCGUGGUCG
In outline:
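The eight P1ex-region nucleotides of an intron in the knt kanamycin-resistance gene on pET-22b(+) were all randomised and the library put into E. coli BL21(DE3). Six replicate transformations were grown overnight at 37°C or 30°C on LB agar with or without 25 μg/mL kanamycin, together with 100 μg/mL carbenicillin, 50 μM IPTG and 0.2% rhamnose. Colonies were pooled and amplicon-sequenced on an Illumina HiSeq 2500. Fitness from DiMSum is the error-weighted combination of wild-type-normalised replicate fold changes, kanamycin over none.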

± gives the uncertainty stated by the source.

For the sequence CGGGAGCAAUAUUACGGGUA, the “self-splicing fitness (ln)” value runs as follows: (30 °C) -2.54 ± 0.21; (37 °C) -1.75 ± 0.2. In the same order, the values of GACCAGCAAUAUUACGAAAA are -2.05 ± 0.12 and -0.391 ± 0.11. Consider ACAGAGCAAUAUUACGCAAU, for which the “self-splicing fitness (ln)” value (30 °C) was -3.59 ± 0.32 and the “self-splicing fitness (ln)” value (37 °C) is -2.42 ± 0.32.

Regarding UGUAAGCAAUAUUACGGGUA, the “self-splicing fitness (ln)” value is -1.61 ± 0.22 (30 °C) and -0.187 ± 0.16 (37 °C).

In the case of AAGAAGCAAUAUUACGGCGC, the “self-splicing fitness (ln)” value (30 °C) was -0.183 ± 0.19 and the “self-splicing fitness (ln)” value (37 °C) is -0.28 ± 0.25.

Take UAAUAGCAAUAUUACGUUGC: the “self-splicing fitness (ln)” value is, setting by setting: (30 °C) -3.64 ± 0.23; (37 °C) -2.71 ± 0.31. Take AAGCAGCAAUAUUACGGAUU: the “self-splicing fitness (ln)” value runs as follows: (30 °C) -0.723 ± 0.055; (37 °C) -0.000157 ± 0.077. Take AUACAGCAAUAUUACGAGCC: the “self-splicing fitness (ln)” value (30 °C) was -2.64 ± 0.27. For ACUGAGCAAUAUUACGAGUG, the “self-splicing fitness (ln)” value is, setting by setting: (30 °C) -3.1 ± 0.12; (37 °C) -2.76 ± 0.14. As to UAAGAGCAAUAUUACGGUUG, the “self-splicing fitness (ln)” value by setting is: (30 °C) -3.21 ± 0.2; (37 °C) -1.87 ± 0.18. With AUUCAGCAAUAUUACGCAUG, the “self-splicing fitness (ln)” value was -1.3 ± 0.082 (30 °C) and -0.553 ± 0.11 (37 °C). For the sequence AUUUAGCAAUAUUACGCCUG, the “self-splicing fitness (ln)” value (30 °C) is -1.23 ± 0.12 and the “self-splicing fitness (ln)” value (37 °C) was -0.529 ± 0.12. In the same order, the values of AUAGAGCAAUAUUACGGUAG are -3.5 ± 0.16 and -1.38 ± 0.13.

For the sequence UACGAGCAAUAUUACGAUAG, the “self-splicing fitness (ln)” value (30 °C) is -3.66 ± 0.47 and the “self-splicing fitness (ln)” value (37 °C) was -2.31 ± 0.42.

Take CGAGAGCAAUAUUACGCGUG: the “self-splicing fitness (ln)” value reads like this: (30 °C) -1.48 ± 0.13; (37 °C) -2.95 ± 0.23.

Take AUAAAGCAAUAUUACGUUUG: the “self-splicing fitness (ln)” value reads like this: (30 °C) -2.84 ± 0.11; (37 °C) -1.79 ± 0.12. On the same counts, the results for CUGUAGCAAUAUUACGAGUU are -2.02 ± 0.3 and -3.02 ± 0.37. On the same counts, the results for UUCAAGCAAUAUUACGAUGA are -0.963 ± 0.097 and 0.0199 ± 0.092.

As for GUGAAGCAAUAUUACGCGAG, the “self-splicing fitness (ln)” value by setting is: (30 °C) -0.336 ± 0.057; (37 °C) -0.0325 ± 0.07.

UGUCAGCAAUAUUACGGCUU: the “self-splicing fitness (ln)” value (30 °C) is -0.428 ± 0.12 and the “self-splicing fitness (ln)” value (37 °C) is -0.319 ± 0.17.

Consider AGAAAGCAAUAUUACGGUGC, for which the “self-splicing fitness (ln)” value (30 °C) was -2.39 ± 0.15 and the “self-splicing fitness (ln)” value (37 °C) was -2.6 ± 0.31. In the same order, the values of CUUCAGCAAUAUUACGAGUU are -3.14 ± 0.2 and -2.03 ± 0.2. On the same counts, the results for UGGUAGCAAUAUUACGGAAG are -2.16 ± 0.15 and -1.27 ± 0.18.

With UCAAAGCAAUAUUACGCAGC, the “self-splicing fitness (ln)” value was -3.94 ± 0.29 (30 °C) and -2.72 ± 0.17 (37 °C).

Turning to AACCAGCAAUAUUACGUAAA, the “self-splicing fitness (ln)” value reads like this: (30 °C) -1.13 ± 0.076; (37 °C) -0.76 ± 0.084. On the same counts, the results for AGAAAGCAAUAUUACGGGUA are -1.32 ± 0.092 and -1.01 ± 0.095.

For CCAUAGCAAUAUUACGGGGU, the “self-splicing fitness (ln)” value runs as follows: (30 °C) -3.73 ± 0.18; (37 °C) -2.46 ± 0.17. GCGCAGCAAUAUUACGGCCG: the “self-splicing fitness (ln)” value is, setting by setting: (30 °C) -2.99 ± 0.38; (37 °C) -2.26 ± 0.26. On to AUGGAGCAAUAUUACGCUAU, for which the “self-splicing fitness (ln)” value reads like this: (30 °C) -3.89 ± 0.15; (37 °C) -2.4 ± 0.22. Take UAACAGCAAUAUUACGACAG: the “self-splicing fitness (ln)” value runs as follows: (30 °C) -0.741 ± 0.052; (37 °C) -0.435 ± 0.073. With UCCCAGCAAUAUUACGCUGU, the “self-splicing fitness (ln)” value is, setting by setting: (30 °C) -3.99 ± 0.23; (37 °C) -2.18 ± 0.23.

Regarding CAAAAGCAAUAUUACGCCUG, the “self-splicing fitness (ln)” value was -1.07 ± 0.13 (30 °C) and -0.273 ± 0.13 (37 °C).

With CCGUAGCAAUAUUACGACGC, the “self-splicing fitness (ln)” value (37 °C) was -3.08 ± 0.38. Take CGUUAGCAAUAUUACGAAAG: the “self-splicing fitness (ln)” value reads like this: (30 °C) -1.11 ± 0.13; (37 °C) -0.689 ± 0.18. Regarding UAUAAGCAAUAUUACGAGCG, the “self-splicing fitness (ln)” value was -0.0858 ± 0.098 (30 °C) and -0.062 ± 0.1 (37 °C).

On to UGAAAGCAAUAUUACGAACU, for which the “self-splicing fitness (ln)” value runs as follows: (30 °C) -0.526 ± 0.088; (37 °C) 0.612 ± 0.1.

With AAGAAGCAAUAUUACGCCAC, the “self-splicing fitness (ln)” value (37 °C) is -2.7 ± 0.48. For the sequence CCUGAGCAAUAUUACGGGUG, the “self-splicing fitness (ln)” value was -2.65 ± 0.12 (30 °C) and -1.81 ± 0.14 (37 °C). As to CUCGAGCAAUAUUACGUAAC, the “self-splicing fitness (ln)” value (30 °C) was -1.53 ± 0.28. As to GUAGAGCAAUAUUACGUACU, the “self-splicing fitness (ln)” value runs as follows: (30 °C) -2.23 ± 0.24; (37 °C) -1.92 ± 0.24. In the same order, the values of CAGCAGCAAUAUUACGUACA are -2.34 ± 0.15 and -1.97 ± 0.16. Regarding CCAGAGCAAUAUUACGUUAC, the “self-splicing fitness (ln)” value by setting is: (30 °C) -3.64 ± 0.46; (37 °C) -1.7 ± 0.34. As to AAGAAGCAAUAUUACGUGUU, the “self-splicing fitness (ln)” value is -2.15 ± 0.13 (30 °C) and -1.61 ± 0.13 (37 °C). In the same order, the values of GCCUAGCAAUAUUACGUGCU are -2.06 ± 0.074 and -1.17 ± 0.084.

Regarding GGUGAGCAAUAUUACGAAUU, the “self-splicing fitness (ln)” value was -1.69 ± 0.36 (30 °C) and -0.274 ± 0.38 (37 °C). With CUCCAGCAAUAUUACGGUAU, the “self-splicing fitness (ln)” value was -4.21 ± 0.22 (30 °C) and -3.58 ± 0.19 (37 °C). In the same order, the values of CAUGAGCAAUAUUACGGUUA are -2.75 ± 0.23 and -3.26 ± 0.32. UUCGAGCAAUAUUACGAAUA: the “self-splicing fitness (ln)” value (37 °C) was -1.26 ± 0.3. Take CUGUAGCAAUAUUACGACUG: the “self-splicing fitness (ln)” value reads like this: (30 °C) -0.156 ± 0.12; (37 °C) -0.0808 ± 0.17. In the same order, the values of GCUUAGCAAUAUUACGCUAA are -2.91 ± 0.21 and -3.01 ± 0.26. Regarding CCAUAGCAAUAUUACGAUGA, the “self-splicing fitness (ln)” value is, setting by setting: (30 °C) -0.628 ± 0.092; (37 °C) -0.23 ± 0.1.

For UUGCAGCAAUAUUACGGGCC, the “self-splicing fitness (ln)” value by setting is: (30 °C) -3.8 ± 0.22; (37 °C) -2.3 ± 0.17. As to AGUGAGCAAUAUUACGGACA, the “self-splicing fitness (ln)” value by setting is: (30 °C) -1.09 ± 0.2; (37 °C) -1.5 ± 0.27. Regarding CACGAGCAAUAUUACGCACG, the “self-splicing fitness (ln)” value by setting is: (30 °C) -2.13 ± 0.21; (37 °C) -1.15 ± 0.21. Turning to GACGAGCAAUAUUACGAAUG, the “self-splicing fitness (ln)” value is -3.03 ± 0.2 (30 °C) and -2.31 ± 0.22 (37 °C). In the same order, the values of AAACAGCAAUAUUACGGCAC are -1.72 ± 0.083 and -0.057 ± 0.1.

With CGCCAGCAAUAUUACGGACA, the “self-splicing fitness (ln)” value reads like this: (30 °C) -0.882 ± 0.11; (37 °C) -0.254 ± 0.11. As to AGUGAGCAAUAUUACGGAAU, the “self-splicing fitness (ln)” value was -3.11 ± 0.18 (30 °C) and -2.16 ± 0.13 (37 °C). On the same counts, the results for CCGAAGCAAUAUUACGGAGG are -4.7 ± 0.31 and -2.44 ± 0.21. In the same order, the values of CCCUAGCAAUAUUACGCCAU are -4.3 ± 0.42 and -2.43 ± 0.39. On the same counts, the results for AUUUAGCAAUAUUACGAUCA are -1.08 ± 0.19 and 0.104 ± 0.16. As to UGAGAGCAAUAUUACGGAGU, the “self-splicing fitness (ln)” value (30 °C) was -2.89 ± 0.29. With CAUAAGCAAUAUUACGUCCG, the “self-splicing fitness (ln)” value reads like this: (30 °C) -0.727 ± 0.081; (37 °C) 1.11 ± 0.12. In the same order, the values of GCUAAGCAAUAUUACGUGAU are -1.18 ± 0.073 and -0.96 ± 0.11. On the same counts, the results for UACAAGCAAUAUUACGGCAA are -0.904 ± 0.072 and -0.0888 ± 0.088. In the same order, the values of AUGCAGCAAUAUUACGUUGC are -4.01 ± 0.18 and -2.25 ± 0.24.

GGAGAGCAAUAUUACGUGUA: the “self-splicing fitness (ln)” value was -2.77 ± 0.29 (30 °C) and -3.17 ± 0.33 (37 °C). On the same counts, the results for ACGUAGCAAUAUUACGAGUA are -3.15 ± 0.21 and -1.07 ± 0.12. In the same order, the values of GAUGAGCAAUAUUACGGGUG are -2.68 ± 0.2 and -3.32 ± 0.28. As to CGUUAGCAAUAUUACGCUCA, the “self-splicing fitness (ln)” value (30 °C) is -0.383 ± 0.14 and the “self-splicing fitness (ln)” value (37 °C) was -0.384 ± 0.15. For GGCCAGCAAUAUUACGCCAG, the “self-splicing fitness (ln)” value by setting is: (30 °C) -3.88 ± 0.37; (37 °C) -1.59 ± 0.35.

As to UGGCAGCAAUAUUACGGCCA, under “37 °C”, the “self-splicing fitness (ln)” value was -0.836 ± 0.45. For UGUCAGCAAUAUUACGGGGU, the “self-splicing fitness (ln)” value reads like this: (30 °C) -2.91 ± 0.18; (37 °C) -2.49 ± 0.23. In the same order, the values of GUGUAGCAAUAUUACGGUUU are -1.04 ± 0.086 and -0.738 ± 0.11.

In the case of UGCUAGCAAUAUUACGGAUU, the “self-splicing fitness (ln)” value (30 °C) was -1.7 ± 0.14 and the “self-splicing fitness (ln)” value (37 °C) was -2.02 ± 0.13. As for UGUCAGCAAUAUUACGAUUC, the “self-splicing fitness (ln)” value reads like this: (30 °C) -1.84 ± 0.11; (37 °C) -0.335 ± 0.13. In the same order, the values of CAAAAGCAAUAUUACGGGCC are -3.65 ± 0.27 and -2.28 ± 0.28.
